Consider six molecules from patent US20220184120A1 (MINERVA BIOTECHNOLOGIES, published 2022).

The term EC50 denotes the midpoint of the concentration-response curve.

Test [1] deals with T1, PSMGFR peptide (Primary Sequence of the MUC1 Growth Factor Receptor).
T1 construct: synthetic peptide immobilised on ELISA plates; also called MUC1* peptide; MUC1* extra cellular domain peptide
T1 peptide: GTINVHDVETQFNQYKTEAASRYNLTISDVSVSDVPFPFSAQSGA
Briefly: ELISA, PSMGFR peptide on plate (FIG. 5). How it is done: Humanized MN-C2 scFv is then incubated with the surface, washed and detected according to standard methods.

The target in test [2] is T2, C-10 peptide (PSMGFR minus 10 amino acids from the C-terminus).
T2 construct: also called C-10 PSMGFR; PSMGFR C-10
T2 peptide: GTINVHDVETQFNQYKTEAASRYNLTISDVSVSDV
Briefly: ELISA (recap in IHC legend).

Test [3] addresses T3, N+9/C-9 peptide (9 amino acids added onto the N-terminus and 9 deleted from the C-terminus of PSMGFR).
T3 peptide: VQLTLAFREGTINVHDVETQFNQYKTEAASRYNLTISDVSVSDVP
The test is described as follows: ELISA (FIG. 66A). A general note: An ELISA detects its analyte on a solid surface through an enzyme-linked reagent.

For test [4], the target named is T4, N-10 peptide (PSMGFR minus 10 amino acids from the N-terminus).
T4 construct: also called N-10 PSMGFR; PSMGFR N-10
T4 peptide: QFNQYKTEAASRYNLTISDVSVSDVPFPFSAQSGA
The test is described as follows: ELISA.

In test [5] the target is T5, MUC1 transmembrane cleavage product after cleavage of full-length MUC1 by MMP9 (UniProt P15941 1110-1255).
T5 construct: on HCT-MUC1-18 (or T47D) cells treated with MMP9; also called MUC1* generated by cleavage by MMP9; MMP9 cleaved form of MUC1
T5 sequence (looked up): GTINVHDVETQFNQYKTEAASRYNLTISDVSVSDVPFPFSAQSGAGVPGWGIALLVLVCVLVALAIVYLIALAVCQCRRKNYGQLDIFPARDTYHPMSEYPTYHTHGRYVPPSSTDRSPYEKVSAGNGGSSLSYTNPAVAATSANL
The test is described as follows: flow cytometry, HCT-MUC1-18 cells + enzyme (FIG. 75K). The procedure:
(§1) Antibodies generated by immunization with PSMGFR, N+20/C−27, or N+9/C−9 were tested for their ability to recognize MUC1 after it is cleaved by MMP9. […] To HCT-MUC1-18 cells was added either a catalytically active MMP9 or MMP2. The enzymes, added over a range of concentrations, were incubated with the cells for 24 hours. The resultant cells were then incubated with the various antibodies and analyzed by FACS to determine which bound to a MUC1 cleavage product produced by cleavage by MMP9 (FIG. 75A-75N). […] Each bar graph is labeled with both the name of the antibody used in that assay and its cognate epitope. The order of the graphs from right to left corresponds to the distance from the cell surface of the antibody's cognate epitope. […] For the greatest degree of cancer specificity, the antibody should recognize a conformational epitope of a MUC1 cleavage product created when MUC1 is cleaved by MMP9.
A general note: In flow cytometry, cells or beads pass a laser one at a time.

In test [6] the target is T1, PSMGFR peptide (Primary Sequence of the …). Briefly: ELISA (FIG. 65A). The text has this:
(§2) The antibodies being tested were derived from animals immunized with the N+20/C−27 peptide. The first selection criteria was to confirm that the antibodies bound to the immunizing N+20/C−27 peptide. […] Although these antibodies were raised against the N+20/C−27 peptide, all but one, 45C11, still bind to the PSMGFR peptide. […] 1E4 was able to bind to the N+20/C−27 peptide, the PSMGFR and the N−10 peptide, consistent with the idea that its epitope must lie within the […] sequence. […] The color of the bars for each antibody in the ELISA graph are color coded to match the deductive cognate sequence, or a portion thereof, of that antibody.
(§3) This same ELISA assay was performed on the antibodies of the invention (FIG. 64-66 and FIG. 201). Note that only 20A10 exactly matches the binding profile of MNC2 and MNE6. 25E6, 28F9 and 18G12 are all able to bind to the N−10 peptide. 18B4 is the only antibody raised against the PSMGFR peptide that requires the 10 most N-terminal amino acids of the peptide. The color of the bars for each antibody in the ELISA graph are color coded to match the deductive cognate sequence, or a portion thereof, of that antibody. In addition, another set of antibodies was assayed by ELISA (FIG. 201). Of this set, B12, B2, B7, B9, 8C7F3, and H11 bound to the PSMGFR peptide, bound to the N−10 peptide, but not to the C−10 peptide (FIG. 201).

In test [7] the target is T6, MUC1* (cleaved MUC1) as it occurs on MUC1/MUC1* positive cancer cell lines (human, UniProt P15941 1110-1255, limits assumed).
T6 construct: the cell line is named under assay; also called MUC1* positive cancer cells; ZR-75-1 aka 1500
T6 sequence (looked up): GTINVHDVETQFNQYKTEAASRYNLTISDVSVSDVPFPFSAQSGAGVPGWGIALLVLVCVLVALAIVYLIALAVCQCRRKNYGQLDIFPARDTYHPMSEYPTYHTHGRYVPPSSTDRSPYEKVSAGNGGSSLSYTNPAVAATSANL
The test is described as follows: flow cytometry, panel of cancer cell lines (FIGS. 80-87).

In test [8] the target is T7, N+20/C-27 peptide (20 amino acids added onto the N-terminus and 27 deleted from the C-terminus of PSMGFR).
T7 peptide: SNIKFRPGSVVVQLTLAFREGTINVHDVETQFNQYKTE
Briefly: ELISA (FIG. 65A).
From the text: as §2, §3

For test [9], the target named is T1, PSMGFR peptide (Primary Sequence of the …). The test is described as follows: ELISA (FIG. 65).
In test [10] the target is T2, C-10 peptide (PSMGFR minus 10 amino …). Briefly: ELISA.
Test [11] has as its target T3, N+9/C-9 peptide (9 amino acids added …). The test is described as follows: ELISA.
Test [12] concerns the target T8, N-26 peptide.
T8 peptide: ISDVSVSDVPFPFSAQSGA
The test is described as follows: ELISA (FIG. 69). The procedure: (§4) In order to further refine the epitopes to which each antibody binds, a series of smaller peptides derived from the PSMGFR sequence were synthesized: N−30 (SEQ ID NO:7), N−26 (SEQ ID NO:6), N−19 (SEQ ID NO:4), N−10/C−5 (SEQ ID NO:8), N−19/C−5 (SEQ ID NO:9). Each of the antibodies was tested in an ELISA assay for their ability to bind to this refined set of peptides, plus PSMGFR, N−10 and C−10 peptides (FIG. 67-69).

For test [13], the target named is T9, N-10/C-5 peptide.
T9 peptide: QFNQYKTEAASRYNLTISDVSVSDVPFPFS
The test is described as follows: ELISA (FIG. 69). The procedure: as §4

Test [14] has as its target T2, C-10 peptide (PSMGFR minus 10 amino …). The test is described as follows: ELISA (FIG. 69). The procedure:
as §4

The target in test [15] is T10, N-19 peptide.
T10 peptide: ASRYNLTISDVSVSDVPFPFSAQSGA
Briefly: ELISA (FIG. 69). The procedure:
as §4

Test [16] addresses T11, N-30 peptide.
T11 peptide: SVSDVPFPFSAQSGA
The test is described as follows: ELISA (FIG. 69). How it is done:
as §4

The target in test [17] is T12, N-19/C-5 peptide.
T12 peptide: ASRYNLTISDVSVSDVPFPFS
Briefly: ELISA (FIG. 69). The procedure: as §4

For test [18], the target named is T3, N+9/C-9 peptide (9 amino acids added …). The test is described as follows: ELISA (FIG. 66).
Test [19] concerns the target T5, MUC1 transmembrane cleavage product …. Briefly: flow cytometry, HCT-MUC1-18 cells + enzyme (FIG. 75L). The procedure:
as §1

Test [20] addresses T1, PSMGFR peptide (Primary Sequence of the …). Briefly: ELISA (FIG. 69). How it is done: as §4
Test [21] addresses T4, N-10 peptide (PSMGFR minus 10 amino …). The test is described as follows: ELISA (FIG. 69). How it is done:
as §4

B1: humanized MN-C2 scFv (scFv)
scFv: EVQLVESGGGLVKPGGSLRLSCAASGFTFSGYAMSWVRQAPGKGLEWVSTISSGGTYIYYPDSVKGRFTISRDNAKNSLYLQMNSLRAEDTAVYYCARLGGDNYYEYFDVWGKGTTVTVSSGGGGSGGGGSGGGGSDIVLTQSPASLAVSPGQRATITCRASKSVSTSGYSYMHWYQQKPGQPPKLLIYLASNLESGVPARFSGSGSGTDFTLTINPVEANDTANYYCQHSRELPFTFGGGTKVEIKRT
notes: also called huMN-C2scFv; huMNC2scFv; not shown: 6xHis tag detected with Anti-Penta-His antibody
Take B1: the concentration giving a half-maximal response (EC50) in test [1] was ~333 nM. The binding result in [2] is on record as “no binding”.

B2: 3C5 mouse monoclonal antibody (antibody, V domains shown)
VH: QIQLVQSGPELKKPGETVKISCKASGYTFTNYGMNWVKQAPGKGLKWMGWINTYTGKPTYADDFKGRFAFSLETSASTAYLQINNLKNEDTATYFCARGGLDGYYGYWGQGTTLTVSS
VL: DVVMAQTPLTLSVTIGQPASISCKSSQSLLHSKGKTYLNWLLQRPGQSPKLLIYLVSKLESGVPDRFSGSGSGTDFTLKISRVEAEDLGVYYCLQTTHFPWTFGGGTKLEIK
notes: raised against N+9/C-9; also called N+9/C-9 antibody 3C5
For B2, the values for the binding result in test [3] and in test [4] were “binds” and “no binding”, respectively.

B3: 45C11 mouse monoclonal antibody (antibody, V domains shown)
VH: EVQLQQSGADLVKPGASVKLSCTASGFNIKDTFMHWVKQRPEQGLEWIGRIDPANGNTKYDPKFQGKATITADTSSNTAYLQLSSLTSEDTAVYYCAKPYGNYGYYYALDYWGQGTSVTVSS
VL: DVQITQSPSYLAASPGETITINCRASKSISKYLAWYQEKPGKTNKLLIYSGSTLQSGIPSRFSGSGSGTDFTLTISSLEPEDFAMYYCQQHNEFPWTFGGGTKLEIK
notes: raised against N+20/C-27; also called N+20/C-27 antibody 45C11
Consider B3, for which the binding result in test [5], in test [6], in [4] and in [7] was “no binding” each time.

B4: 1E4 mouse monoclonal antibody (antibody, V domains shown)
VH: QVQLQQSGAELVRPGSSVKISCKASGYAFSTYWMNWVKQRPGQGLEWIGQIYPGDSDTNYNGKFKGKATLTADKSSNTAYMQLSSLTSEDSAVFFCARGNHASMDYWGQGTSVTVSS
VL: DVVMTQTPLSLPVSLGDQASISCRSSQSLVHSNGNTYLHWYLQKPGQSPKLLIYKVSNRFSGVPDRFSGSGSGTDFTLKISRVEAEDLGVYFCSQKTHVPWTFGGGTKLEIK
notes: raised against N+20/C-27; also called MN-1E4; N+20/C-27 antibody 1E4
For the molecule B4, the binding result in [8], in test [9], in [10] and in test [4] was “binds” throughout.

B5: 39H5 mouse monoclonal antibody (antibody, V domains shown)
VH: QIQLVQSGPELKKPGETVKISCKASGYTFTNYGMNWVKQAPGKGLKWMGWINTYTGEPTYVGDFKGRFAFSLETSASTAYLQINNLKNEDTATYFCVRGIHGYVDYWGQGTTLTVSS
VL: DVLMTQTPLSLPVSLGDQASISCRSSQSIVHRNGNTYLEWYLQKPGQSPKLLIYKVSNRFSGVPDRFSGSGSGTDFTLKISRVEAEDLGVYYCFQGSHLPWTFGGGTKLEIK
notes: raised against N+9/C-9; also called N+9/C-9 antibody 39H5
With B5, the binding result in test [11] is recorded as “binds”; in test [12], “no binding”; in test [13], “no binding”; in [14], “no binding”; in test [15], “no binding”; in [16], “no binding”. Besides, the binding result in test [17] is given as “no binding”.

B6: 8A9 mouse monoclonal antibody (antibody, V domains shown)
VH: EVELVESGGGLVQPGGSLRLSCATSGFTFTDHYMSWVRQPPGKALEWLGFIRNKANGYTTEYSASVKGRFTISRDNSQSILYLQMKTLRTEDSATYYCARPSDWDSWFAYWGQGTLVTVSA
VL: DVLMTQTPLSLPVSLGDQASISCRSSQSIVHSNGNTYLDWYLQKPGQSPKLLIYRVSNRFSGVPDRFSGSGSGTDFTLKISRVEAEDLGLYYCFQGSHVPWAFGGGTKLEIK
notes: raised against N+9/C-9; also called N+9/C-9 antibody 8A9
For the molecule B6, the binding result in [18] is “binds”; in [19], “no binding”; in test [20] it was “no binding”; in [12], “no binding”; in test [13], “no binding”; in test [14] it was “no binding”. In addition, the binding result in [21], in test [15], in test [16], in test [17] and in test [7] was “no binding” throughout.
